Experimental data reported in patent US8129349B2, “Treatment of disease by inducing cell apoptosis” (The Regents of the University of California, priority 2000, dated 2012).

Columns and labels:
[1] = system: C/EBPβ-Ala^217 stellate cells; experiment: Apoptosis of stellate cells from C/EBPβ-Ala^217 transgenic mice, Hoechst 33342 nuclear staining; format: cell-based, mouse; conditions: collagen type I; IETD or transfection 1 μg
Experimental: FIG. 2 provides results showing increased apoptosis in hepatic stellate cells from C/EBPβ^−/− and C/EBPβ-Ala^217 transgenic mice. […] Six hours after cultivation, an annexin-V-PE binding assay was performed (P<0.05 for C/EBPβ^−/− and C/EBPβ-Ala^217). […] Apoptotic cells are indicated with arrowheads.
Fluorescent labels were observed using a triple-channel fluorescence microscope. The fluorochromes utilized were FITC and Texas red (Molecular Probes). The number of annexin V (+) cells was determined by in vivo microscopy as known in the art (See, Rudel and Bokoch, supra) among all cells or those expressing the GFP indicator protein either co-transfected with C/EBPβ proteins, or alone. These values are reported herein as a percentage of annexin V (+) for cells expressing the transfected DNA. At least 1000 cells were analyzed per experimental point, including at least 100 cells expressing the transfected DNA (Buck and Chojkier, EMBO J., 15:1753-1765 (1996); Buck et al., (1994), supra; and Buck et al., (1999), supra). […] Nuclear morphology was analyzed by staining cells with Hoechst 33342 (Molecular Probes). […]

hepatic stellate cells = experiment: Apoptosis of activated stellate cells transfected with C/EBPβ constructs, annexin-V-PE binding; format: cell-based, mouse; conditions: apoptosis induced by dominant negative MEKK1, IκBα or RSK mutants or by lactacystin
Text: FIG. 1 provides data showing that phosphorylation of C/EBPβ on Thr^217 is required for hepatic stellate cell survival. Panel A provides phosphopeptide maps of in vivo labeled endogenous C/EBPβ in day-4 quiescent and activated primary mouse stellate cells cultured from the time of isolation on EHS or collagen type I matrix, respectively. The arrow indicates the peptide containing Phospho-Thr^217 in activated cells. […] Panel B provides phosphopeptide maps of in vitro labeled C/EPBβ. Active p90RSK phosphorylated C/EPBβ, but not C/EBPβ-Ala^217 on Thr^217 in vitro (arrowheads). Panel C provides results for cells cultured on collagen type I transfected with MSV-C/EBPβ antisense (AS), MSV-C/EBPβ sense (S), or MSV-C/EBPβ-Ala^217 together with CMV-GFP (green fluorescent protein) and p90RSK (1 μg each), as indicated in the Figure. Four hours after transfection, annexin-V-PE binding to plasma membranes was determined. The values presented are the percentage of transfected cells (green) that were annexin-V-PE (+) (red) (P<0.05 for C/EBPβ AS, and C/EBPβ-Ala^217). Panel D provides results for cells transfected as in […] with vectors expressing dominant negative mutants for MEKK1, IκBα, or p90RSK, or treated with the proteasome inhibitor lactacystin (10 μM) (closed bars), and co-transfected with MSV-C/EBPβ-Glu^217 (1 μg each) (open bars) as indicated. Annexin-V-PE binding was determined as described for Panel A (P<0.05 for C/EBPβ-Glu^217). Panel E provides results for cells transfected as described for Panel C, with a dominant-negative p90RSK, treated with FAS (100 nM for 6 hours) or cultured in a serum-free medium for 6 hours (closed bars), and co-transfected with MSV-C/EBPβ-Glu^217 (1 μg each) (open bars), as indicated. Cell death was determined by nuclear staining with Hoechst 33342 (P<0.05 for C/EBPβ-Glu^217 in RSK mut and FAS-treated cells).
FIG. 4 provides results showing that C/EBPβ PThr^217 associates with procaspases 1 and 8, and inhibits their activation. Panel A provides schematic representations of C/EBPβ peptides. The activation (dotted bars), DNA binding (solid bars) and dimerization (hatched bars) domains are shown. […] Panel C provides results showing that C/EBPβ and procaspase 8 were detected in activated stellate cells isolated from C/EBPβ^+/+ mice by confocal microscopy using specific antibodies (Santa Cruz Biotechnology). Control C/EBPβ^−/− stellate cells were negative for C/EBPβ, positive for procaspase 8, and apoptotic. Panel D provides immunoblot results for MSV vectors expressing C/EBPβ-HA (hemagglutinin protein) peptides (0.3 μg) transfected into activated stellate cells. The expressed peptides were immunoprecipitated with anti-HA antibodies. C/EBPβ-PThr^217 was detected using a specific antibody, only in cells expressing wild-type C/EBPβ. […] RSK was associated with all C/EBPβ peptides. Neither C/EBPβ nor procaspases 1 and 8 were detected in C/EBPβ immunoprecipitates from cells expressing C/EBPβ AS. Reciprocal immunoprecipitations of procaspases and RSK confirmed these associations.
Adult male Sprague-Dawley rats and adult male C/EBPβ^+/+ and C/EBPβ^−/− (Screpanti et al., supra; and Buck et al., (1999), supra), C/EBPβ-Ala^217 and C/EBPβ-Asp^105 transgenic mice were used for the isolation of primary hepatic stellate cells (Houglum et al., supra). Primary hepatic stellate cells were isolated by collagenase/pronase perfusion and purified by a single step density Nycodenz gradient (Accurate Chemical & Scientific) as known in the art (See, Lee et al., (1995), supra). Cells were plated on type I collagen matrix (Becton Dickinson) or EHS matrix (Matrigel, Collaborative Biomedical Products). Cells were cultured with 10% fetal calf serum/10% fetal bovine serum and transfected with lipofectamine (GIBCO) for DNA vectors or with the Chariot reagent (Active Motif) for peptides (10 μM) as known in the art (See, Houglum et al., supra; and Morris et al., J. Biol. Chem., 274:24942-24946 (1999)). […]

B1: C/EBPβ-Glu^217: modified murine C/EBPβ with mutation of Thr^217 to glutamic acid (SEQ ID NO:4), phosphorylation mimic (protein, listed as Mus musculus)
chain: MHRLLAWDAACLPPPPAAFRPMEVANFYYEPDCLAYGAKAARAAPRAPAAEPAIGEHERAIDFSPYLEPLAPAADFAAPAPAHHDFLSDLFADDYGAKPSKKPADYGYVSLGRAGAKAAPPACFPPPPPAALKAEPGFEPADCKRADDAPAMAAGFPFALRAYLGYQATPSGSSGSLSTSSSSSPPGTPSPADAKAAPAACFAGPPAAPAKAKAKKZVDKLSDEYKMRRERNNIAVRKSRDKAKMRNLETQHKVLELTAENERLQKKVEQLSRELSTLRNLFKQLPEPLLASAGHC
Q: B1 was tested. Which “Block of apoptosis of C/EBPβ-Ala^217 stellate cells” value [1] did it give?
A: Its value is “blocked”.

Q: And the “Rescue from induced apoptosis by expressed construct” value (hepatic stellate cells)?
A: The value was “partially inhibited”.
